Measurements reported in publication PMC3858243, “Escherichia coli Ribosomal Protein S1 Unfolds Structured mRNAs Onto the Ribosome for Active Translation Initiation”.

Legend:
Assay in all cases: EMSA; Not given in the material for EMSA, SPR and filter binding (buffer with monovalent ions and MgCl2; RNA renatured 90°C 1 min, ice, then 25°C 30 min)
S1Δ4-6 = S1Δ4-6 (Escherichia coli, UniProt P0AG67 1-279); details: protein: recombinant; tags: C-terminal His6; label: 5' 32P; pseudoknot
[1] = molecular target: ribosomal protein S1 wild type (Escherichia coli, UniProt P0AG67 1-557)
S1Δ3-6 = S1Δ3-6 (Escherichia coli, UniProt P0AG67 1-170); details: protein: recombinant; tags: C-terminal His6; label: 5' 32P; pseudoknot

B1: mut-psk-rpsOSD (structured_RNA)
RNA: GGGAUCGCUGAAUUAGAGAUCGGCGUCCUUUCAUUCUAUAUAGUAAGGAGGUUAAAAUGUCUCUAAGU
For B1, the binding signal (S1Δ4-6) was 5 fold weaker than WT S1, the “apparent K (half saturation)” value [1] was roughly 447 nM and the binding result (S1Δ3-6) was “no binding”.
